Experiments:
Assay in all cases: EMSA; 150 mM KCl, 1 mM Mg2+; EMSA: 50 mM Tris-HCl pH 7.4, 1 mM MgCl2, 0.1 mM EDTA, 150 mM KCl (or LiCl, printed LiCl2), 1 mM DTT, 1 U/ul RNase inhibitor, 100 ug/ml BSA, ~25 C, 20 min; 0.5 pmol RNA in 10 ul
Settings in all cases: protein: recombinant; tags: N-terminal GST (pGEX-6P-1); label: 5' 32P or 5' ATTO 550; intramolecular G4 (plausible structure)
[1] = target: GST-FXR1 S382-P476 R386K (human, UniProt P51114 382-476, R386K)
[2] = target: GST-FXR1 S382-P476 WT (human, UniProt P51114 382-476)
[3] = target: GST-FXR1 S382-P476 R386-459K (human, UniProt P51114 382-476, R386K;R388K;R453K;R455K;R459K)
Sequence of GST-FXR1 S382-P476 R386-459K (P51114 382-476 R386K/R388K/R453K/R455K/R459K): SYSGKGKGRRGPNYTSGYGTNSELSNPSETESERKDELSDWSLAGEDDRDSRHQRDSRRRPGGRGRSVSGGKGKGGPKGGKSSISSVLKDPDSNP

Sequence of GST-FXR1 S382-P476 R386K (P51114 382-476 R386K): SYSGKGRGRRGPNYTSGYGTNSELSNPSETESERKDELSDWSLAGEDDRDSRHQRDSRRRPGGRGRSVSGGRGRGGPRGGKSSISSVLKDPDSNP
Sequence of GST-FXR1 S382-P476 WT (P51114 382-476): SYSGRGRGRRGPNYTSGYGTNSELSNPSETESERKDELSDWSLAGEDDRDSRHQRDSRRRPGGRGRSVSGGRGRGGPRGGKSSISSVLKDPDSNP

Binder: GGGGGUGAGGGUCCCAUGUGGUGGCACAGG (structured_RNA) [30-mer p21 3'UTR G4-RNA (seg1)]
- binding result [1]: no binding
- Kd [2]: 25 nM
- binding result [3]: no binding

Source: publication PMC11229354, “PRMT5-mediated arginine methylation of FXR1 is essential for RNA binding in cancer cells”
